Legend:
[1] = target: BtsD^ΔSP (Stenotrophomonas maltophilia CGMCC 1.1788); assay: native gel or EMSA; purified BtsD^ΔSP in 2 mM HEPES, 20 mM K2HPO4, pH 7.9, 2 h at 28°C or 37°C, directly or after a gradual 30-min upshift from 0°C; native gel; fewer tetramers at 37°C
[2] = system: T1, BtsR (Stenotrophomonas maltophilia CGMCC 1.1788), ORF:ddddda88; assay: EMSA
T1 sequence: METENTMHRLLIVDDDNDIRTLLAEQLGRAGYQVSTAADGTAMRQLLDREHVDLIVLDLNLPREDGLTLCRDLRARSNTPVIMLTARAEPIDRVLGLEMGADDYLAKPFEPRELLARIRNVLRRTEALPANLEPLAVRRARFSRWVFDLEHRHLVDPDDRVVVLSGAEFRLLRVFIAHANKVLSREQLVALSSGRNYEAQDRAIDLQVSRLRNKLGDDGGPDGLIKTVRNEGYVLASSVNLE

Row | Substance | stoichiometry N [1] | binding [2]
1 | BtsD^ΔSP (enzyme) | 4 | –
2 | CCGGTGAGGTTCGAAAAGCGGGTTCTGGTAGTGCCGGCCGCTGGCCGGCAACCCGACCTTCGCTGATTGCCGGCCAGCGGCCGGCACTACCATGCCGCTCTTGCTCCCTTTCACGCATCCCCCCCCCCCGCCCCTTGACCTCAACCAATGTTGAGGTGCGATAACAGTCTCCCCACGGCCAGCCCTCTGGCCTTCCCCACGGAGATTGCTTCA (double strand) [sod1-3 promoter probe] | – | binds

— PMC11404848, “Stenotrophomonas maltophilia uses a c-di-GMP module to sense the mammalian body temperature during infection” (PLOS Pathogens, 2024)
